Measured values: patent publication US20150258211

Test system: GST-GFP fusion protein expressed from pJB-HTS-GFP (GST, hexa-histidine tag, thrombin cleavage site LVPRGS, GFP) [GST: P08515]
Sequence (P08515 whole entry, looked up, the tested form may be a part): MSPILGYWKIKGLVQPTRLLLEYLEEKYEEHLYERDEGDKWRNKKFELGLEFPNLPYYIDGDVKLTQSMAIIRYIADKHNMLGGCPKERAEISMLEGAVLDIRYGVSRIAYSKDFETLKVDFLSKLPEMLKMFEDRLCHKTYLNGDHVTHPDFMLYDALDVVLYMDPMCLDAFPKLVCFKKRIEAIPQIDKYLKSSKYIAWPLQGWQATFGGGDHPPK

With thrombin the “Michaelis-Menten constant (Km) of thrombin cleavage of GST-GFP associated with PEGDA-GSH microspheres, SDS-PAGE densitometry” value was “significantly increased from approximately 0.18 µM to 0.30 µM” and the “Michaelis-Menten constant (Km) of thrombin cleavage of free GST-GFP, SDS-PAGE densitometry” value was “significantly increased from approximately 0.18 µM to 0.30 µM”.
